Reference: paper PMC8575462, “PP2A/B55α substrate recruitment as defined by the retinoblastoma-related protein p107” (eLife, 2021)

B1: GST-p107 R1R2 [not stated] / B55α (PP2A regulatory subunit B55α), endogenous in U-2 OS cells [human (endogenous in U-2 OS)] (parent complex)
chain 1: KVPTCEEVIFPNNFETGNGGNVQGHLPLMPMSPLMHPRVKEVRTDSGSLRRDMQPLSPISVHERYSSPTAGSAKRRLF
chain 2: MAGAGGGNDIQWCFSQVKGAVDDDVAEADIISTVEFNHSGELLATGDKGGRVVIFQQEQENKIQSHSRGEYNVYSTFQSHEPEFDYLKSLEIEEKINKIRWLPQKNAAQFLLSTNDKTIKLWKISERDKRPEGYNLKEEDGRYRDPTTVTTLRVPVFRPMDLMVEASPRRIFANAHTYHINSISINSDYETYLSADDLRINLWHLEITDRSFNIVDIKPANMEELTEVITAAEFHPNSCNTFVYSSSKGTIRLCDMRASALCDRHSKLFEEPEDPSNRSFFSEIISSISDVKFSHSGRYMMTRDYLSVKIWDLNMENRPVETYQVHEYLRSKLCSLYENDCIFDKFECCWNGSDSVVMTGSYNNFFRMFDRNTKRDITLEASRENNKPRTVLKPRKVCASGKRKKDEISVDSLDFNKKILHTAWHPKENIIAVATTNNLYIFQDKVN
B2: Myc-B55α wild type [not stated] / Flag-pRB [not stated] (parent complex)
chain 1: B1 chain 2
chain 2: MPPKTPRKTAATAAAAAAEPPAPPPPPPPEEDPEQDSGPEDLPLVRLEFEETEEPDFTALCQKLKIPDHVRERAWLTWEKVSSVDGVLGGYIQKKKELWGICIFIAAVDLDEMSFTFTELQKNIEISVHKFFNLLKEIDTSTKVDNAMSRLLKKYDVLFALFSKLERTCELIYLTQPSSSISTEINSALVLKVSWITFLLAKGEVLQMEDDLVISFQLMLCVLDYFIKLSPPMLLKEPYKTAVIPINGSPRTPRRGQNRSARIAKQLENDTRIIEVLCKEHECNIDEVKNVYFKNFIPFMNSLGLVTSNGLPEVENLSKRYEEIYLKNKDLDARLFLDHDKTLQTDSIDSFETQRTPRKSNLDEEVNVIPPHTPVRTVMNTIQQLMMILNSASDQPSENLISYFNNCTVNPKESILKRVKDIGYIFKEKFAKAVGQGCVEIGSQRYKLGVRLYYRVMESMLKSEEERLSIQNFSKLLNDNIFHMSLLACALEVVMATYSRSTSQNLDSGTDLSFPWILNVLNLKAFDFYKVIESFIKAEGNLTREMIKHLERCEHRIMESLAWLSDSPLFDLIKQSKDREGPTDHLESACPLNLPLQNNHTAADMYLSPVRSPKKKGSTTRVNSTANAETQATSAFQTQKPLKSTSLSLFYKKVYRLAYLRLNTLCERLLSEHPELEHIIWTLFQHTLQNEYELMRDRHLDQIMMCSMYGICKVKNIDLKFKIIVTAYKDLPHAVQETFKRVLIKEEEYDSIIVFYNSVFMQRLKTNILQYASTRPPTLSPIPHIPRSPYKFPSSPLRIPGGNIYISPLKSPYKISEGLPTPTKMTPRSRILVSIGESFGTSEKFQKINQMVCNSDRVLKRSAEGSNPPKPLKKLRFDIEGSDEADGSKHLPGESKFQQKLAEMTSTRTRMQKQKMNDSMDTSNKEEK

Variants of: B1
Test: GST pull-down, western blot; U2-OS lysates; triplicate; read off a plot

Variant	ratio to parent
chain 1 R43A	~0.47
chain 1 R50A, chain 1 R51A	~1
chain 1 R38A, chain 1 K40A	~0.05

Variants of: B2
Test: co-immunoprecipitation (anti-Myc IP), western blot quantitation; 293T cells, co-transfected; read off a plot

Variant	ratio to parent
chain 1 H179A	~0.8
chain 1 K48E	~0.95
chain 1 K98A	~0.65
chain 1 L225A	~0.2
chain 1 F280A	~0.5
chain 1 D197K	~-0.2
chain 1 N181A	~1.1
chain 1 E347A	~0.55
chain 1 E283A	~0.3
chain 1 K345A	~0.65
chain 1 D116A	~0.35

Other lines, results leading:

ratio to parent	Variant
~0.7	chain 1 T436A
~1.5	chain 1 S287A
~1.5	chain 1 S247A
~0.85	chain 1 V228A
